In the RNAGym collection of RNA variant scans (doi:10.7554/elife.80360) one finds self-cleavage data, which are given here for 32 variants.

B1: HDV Ribozyme (parent)
chain: GGCCGGCAUGGUCCCAGCCUCCUCGCUGGCGCCGGCUGGGCAACAUUCCGAGGGGACCGUCCCCUCGGUAAUGGCGAAUGGGACCCA

The variants in this data set derive from B1. The experiment in a line: self-cleavage, relative activity (ratio to wild type); higher = more cleavage; co-transcriptional.
For the variant GGCCGGUAUGGUCCCAGCCUCCUCGCUGGCGCCGGCUGGGCAACAUUCCCAGGGGACCGUCCCCUCGGUAAUGGCGAAUGGGACCCA, the self-cleavage was 0.689. The result for GGCCGGUAUGGUCCCAGCCUCCUCGCUGGCGCCGGCUGGGCAACAUUCCGAGGGGACCGUCCCCUCGGUAAUGGCGAAUGGGACGCA reads 0.985. The result for GGCCGGUAUGGUCCCAGCCUCCUCGCUGGCGCCGGCUGGGCAACAUUCCGAGGGGACCGUCCCCUCGGUAAUGGCGAAUGGGACUCA reads 0.886. Next, GGCCGGUAUGGUCCCAGCCUCCUCGCUGGCACCGGCUGGGCAACAUUCCGAGGGGACCGUCCCCUCGGUAAUGGCGAAUGGGACCCA: 0.876; GGCCGGUAUGGUCCCAGCCUCCUCGCUGGCCCCGGCUGGGCAACAUUCCGAGGGGACCGUCCCCUCGGUAAUGGCGAAUGGGACCCA: 0.727; GGCCGGUAUGGUCCCAGCCUCCUCGCUGGCGCCGGCUGGGCAACAUUCCGAGGGGACCGUCCCCUGGGUAAUGGCGAAUGGGACCCA: 0.974. As to GGCCGGUAUGGUCCCAGCCUCCUCGCUGGCGCCGGCUGGGCAACAUUCCGAGGGGACCGUCCCCUAGGUAAUGGCGAAUGGGACCCA, the self-cleavage stood at 0.776. The result for GGCCGGUAUGGUCCCAGCCUCCUCGCUGGCGCCUGCUGGGCAACAUUCCGAGGGGACCGUCCCCUCGGUAAUGGCGAAUGGGACCCA reads 0.0923; that for GGCCGGUAUGGUCCAAGCCUCCUCGCUGGCGCCGGCUGGGCAACAUUCCGAGGGGACCGUCCCCUCGGUAAUGGCGAAUGGGACCCA, 0.256.

Regarding GGCCGGUAUGGUCCUAGCCUCCUCGCUGGCGCCGGCUGGGCAACAUUCCGAGGGGACCGUCCCCUCGGUAAUGGCGAAUGGGACCCA, the self-cleavage was determined as 0.674. Turning to GGCCGGUAUGGUCCCAGUCUCCUCGCUGGCGCCGGCUGGGCAACAUUCCGAGGGGACCGUCCCCUCGGUAAUGGCGAAUGGGACCCA, the self-cleavage came to 0.277.

In the case of GGCCGGUAUGGUCGCAGCCUCCUCGCUGGCGCCGGCUGGGCAACAUUCCGAGGGGACCGUCCCCUCGGUAAUGGCGAAUGGGACCCA, the self-cleavage was 0.308. With GGCCGGUAUGGUCCCAGCCUCCUCGCUGGCGCCGGCUCGGCAACAUUCCGAGGGGACCGUCCCCUCGGUAAUGGCGAAUGGGACCCA, the self-cleavage was 0.0462. Take GGCCGGUAUGGUCCCAGCCUCCUCGCUGACGCCGGCUGGGCAACAUUCCGAGGGGACCGUCCCCUCGGUAAUGGCGAAUGGGACCCA: the self-cleavage amounted to 0.0906. The result for GGCCGGUAUGGUCCCAGCCUCCUCGCUGCCGCCGGCUGGGCAACAUUCCGAGGGGACCGUCCCCUCGGUAAUGGCGAAUGGGACCCA reads 0.185. The result for GGCCGGUAUGGUCCCAGCCUCCUCGCUGUCGCCGGCUGGGCAACAUUCCGAGGGGACCGUCCCCUCGGUAAUGGCGAAUGGGACCCA reads 0.157; that for GGCCGGUAUGGUCCCAGCCUCCUCGCUGGCGCCGGCUGGCCAACAUUCCGAGGGGACCGUCCCCUCGGUAAUGGCGAAUGGGACCCA, 0.166. The result for GGCCGGUAUGGUCCCAGCCUCCUCGCUGGCGCCGGCUGGACAACAUUCCGAGGGGACCGUCCCCUCGGUAAUGGCGAAUGGGACCCA reads 0.752; that for GGCCGGUAUGGUCCCAGCCUCCUCGCUGGCGCAGGCUGGGCAACAUUCCGAGGGGACCGUCCCCUCGGUAAUGGCGAAUGGGACCCA, 0.0831. GGCCGGUAUGGUCCCAGCUUCCUCGCUGGCGCCGGCUGGGCAACAUUCCGAGGGGACCGUCCCCUCGGUAAUGGCGAAUGGGACCCA: the self-cleavage came to 0.0519.

With GGCCGGUAUGGUCCCAGCGUCCUCGCUGGCGCCGGCUGGGCAACAUUCCGAGGGGACCGUCCCCUCGGUAAUGGCGAAUGGGACCCA, the self-cleavage is 0.0528.

For GGCCGGUAUGGUCCCAGCCUCCUCGUUGGCGCCGGCUGGGCAACAUUCCGAGGGGACCGUCCCCUCGGUAAUGGCGAAUGGGACCCA, the self-cleavage was 0.867.

Turning to GGCCGGUAUGGUCCCAGCCUCCUCGGUGGCGCCGGCUGGGCAACAUUCCGAGGGGACCGUCCCCUCGGUAAUGGCGAAUGGGACCCA, the self-cleavage came out at 0.534. The result for GGCCGGUAUGGUCCCAGCCUCCUCGAUGGCGCCGGCUGGGCAACAUUCCGAGGGGACCGUCCCCUCGGUAAUGGCGAAUGGGACCCA reads 0.91; that for GGCCGGUAUGGUCCCAGCCUCCUCGCUGGCGCCGGCUGGGCAACAUUCCGAGGGGAUCGUCCCCUCGGUAAUGGCGAAUGGGACCCA, 0.927; that for GGCCGGUAUGGUCCCAGCCUCCUCGCUGGCGCCGGCUGGGCAACAUUCCGAGGGGAACGUCCCCUCGGUAAUGGCGAAUGGGACCCA, 0.979. Next, GGCCGGUAUGGUCCCAGCCUCCUCGCUGGCGCCGGCUGGGCAACAUUCCGAGGGGACCGUCCCCUCGGUAAUGGCGAAUGGGAUCCA: 0.686.

For the variant GGCCGGUAUGGUCCCAGCCUCCUCGCUGGCGCCGGCUGGGCAACAUUCCGAGGGGACGGUCCCCUCGGUAAUGGCGAAUGGGACCCA, the self-cleavage came out at 1.02.

Consider GGCCGGUAUGGUCCCAGCCUCCUCGCUAGCGCCGGCUGGGCAACAUUCCGAGGGGACCGUCCCCUCGGUAAUGGCGAAUGGGACCCA, for which the self-cleavage amounted to 0.136.

Regarding GGCCGGUAUGGUCCCAGCCUCCUCGCUCGCGCCGGCUGGGCAACAUUCCGAGGGGACCGUCCCCUCGGUAAUGGCGAAUGGGACCCA, the self-cleavage was 0.237.

As for GGCCGGUAUGGUCCCAGCCUCAUCGCUGGCGCCGGCUGGGCAACAUUCCGAGGGGACCGUCCCCUCGGUAAUGGCGAAUGGGACCCA, the self-cleavage came out at 0.261. Next, GGCCGGUAUGGUCCCAGCCUCGUCGCUGGCGCCGGCUGGGCAACAUUCCGAGGGGACCGUCCCCUCGGUAAUGGCGAAUGGGACCCA: 0.0678.
